Test results: US10646600B2, “HER2 polypeptides useful for imaging and monitoring tumors and cancers” (GE HEALTHCARE LIMITED, priority 2013, dated 2020)
Read-outs that look alike come from different tables or passages of the source.

Experiments:
[1] = test system: human p95HER2; assay: Surface Plasmon Resonance, p95HER2 ECD-Fc-6×His; format: binding
Experimental: To characterize the affinity of [^19F]GE-226[SEQ ID NO 1] to HER2 protein, Surface Plasmon Resonance studies were conducted. Human, rhesus and rat HER2-ECD-Fc (SINO Biological, Beijing, China, Cat. Nr: 10004-H02H, 90020-K02H, and 80079-R02H), as well as human HER2-ECD-Fc-6×His (R&D Systems, Minneapolis, Minn., Cat. Nr: 1129-ER) and p95HER2 ECD-Fc-6×His (Syngene, Cambridge, United Kingdom) were diluted with 50 mM sodium acetate pH 4.5 (Biacore (GE Healthcare, Buckinghamshire, UK) coupling buffer) to a final concentration of 10 μg/mL. Antigen coupling to Biacore sensor chip CMS (Cat. Nr: BR-1005-30) was done according to amine coupling protocol from the instrument manual […]. HBS-EP buffer (10 mM HEPES pH 7.4, 150 mM NaCl, 3 mM EDTA and 0.005% surfactant P20; GE Healthcare, Little Chalfont, United Kingdom, Cat. Nr: BR-1006-69) was used as running buffer and as solvent for the substances. The affinity studies were performed using a Biacore T100 (GE Healthcare). [^19F]GE-226 was diluted in HBS-EP buffer to 50 nM, 25 nM, 12.5 nM, 6.25 nM, 3.125 nM, 1.56 nM, 0.78 nM, 0.39 nM, 0.195 nM, 0.097 nM, 0.049 nM and 0 nM. The flow cells of the first chip comprised of blank, human HER2-ECD-Fc-6×His, p95HER2-ECD-Fc-6×His batch I and p95HER2-ECD-Fc-6×His batch II. The flow cells on the second chip contained blank, human HER2-ECD-Fc, rhesus HER2-ECD-Fc and rat HER2 ECD-Fc. […]

[2] = target: T1, rat HER2 (Rattus norvegicus, UniProt P06494); assay: Surface Plasmon Resonance, rat HER2-ECD-Fc; format: binding
T1 construct: Human, rhesus and rat HER2-ECD-Fc (SINO Biological, Beijing, China, Cat. Nr: 10004-H02H, 90020-K02H, and 80079-R02H); Fc (C); purchased SINO Biological 80079-R02H
T1 sequence (P06494 23-654 limits assumed): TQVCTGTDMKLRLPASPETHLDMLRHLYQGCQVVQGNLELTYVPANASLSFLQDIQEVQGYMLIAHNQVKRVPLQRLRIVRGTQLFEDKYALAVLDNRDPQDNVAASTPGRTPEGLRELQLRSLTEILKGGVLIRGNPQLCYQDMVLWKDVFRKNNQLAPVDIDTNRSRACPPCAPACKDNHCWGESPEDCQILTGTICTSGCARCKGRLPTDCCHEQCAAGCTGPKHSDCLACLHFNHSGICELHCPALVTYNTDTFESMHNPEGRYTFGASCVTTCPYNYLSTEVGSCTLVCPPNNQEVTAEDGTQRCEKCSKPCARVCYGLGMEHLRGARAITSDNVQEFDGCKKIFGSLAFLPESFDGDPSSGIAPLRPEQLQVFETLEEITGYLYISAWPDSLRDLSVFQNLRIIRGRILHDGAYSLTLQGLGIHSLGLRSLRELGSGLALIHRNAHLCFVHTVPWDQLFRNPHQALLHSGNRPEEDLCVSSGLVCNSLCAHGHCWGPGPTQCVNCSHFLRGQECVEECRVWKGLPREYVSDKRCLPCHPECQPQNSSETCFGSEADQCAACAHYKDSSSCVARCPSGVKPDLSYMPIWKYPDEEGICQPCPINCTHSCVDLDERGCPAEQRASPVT
Experimental: To characterize the affinity of [^19F]GE-226[SEQ ID NO 1] to HER2 protein, Surface Plasmon Resonance studies were conducted. Human, rhesus and rat HER2-ECD-Fc (SINO Biological, Beijing, China, Cat. Nr: 10004-H02H, 90020-K02H, and 80079-R02H), as well as human HER2-ECD-Fc-6×His (R&D Systems, Minneapolis, Minn., Cat. Nr: 1129-ER) and p95HER2 ECD-Fc-6×His (Syngene, Cambridge, United Kingdom) were diluted with 50 mM sodium acetate pH 4.5 (Biacore (GE Healthcare, Buckinghamshire, UK) coupling buffer) to a final concentration of 10 μg/mL. Antigen coupling to Biacore sensor chip CMS (Cat. Nr: BR-1005-30) was done according to amine coupling protocol from the instrument manual (Syngene). HBS-EP buffer (10 mM HEPES pH 7.4, 150 mM NaCl, 3 mM EDTA and 0.005% surfactant P20; GE Healthcare, Little Chalfont, United Kingdom, Cat. Nr: BR-1006-69) was used as running buffer and as solvent for the substances. The affinity studies were performed using a Biacore T100 (GE Healthcare). [^19F]GE-226 was diluted in HBS-EP buffer to 50 nM, 25 nM, 12.5 nM, 6.25 nM, 3.125 nM, 1.56 nM, 0.78 nM, 0.39 nM, 0.195 nM, 0.097 nM, 0.049 nM and 0 nM. The flow cells of the first chip comprised of blank, human HER2-ECD-Fc-6×His, p95HER2-ECD-Fc-6×His batch I and p95HER2-ECD-Fc-6×His batch II. The flow cells on the second chip contained blank, human HER2-ECD-Fc, rhesus HER2-ECD-Fc and rat HER2 ECD-Fc. The immobilization of the proteins was validated with protein-A (Sigma-Aldrich, St. Louis, Mo., Cat. Nr: P6031) and anti-human IgG antibody (Perkin Elmer, Waltham, Mass., Cat. Nr: NEF803001EA). [^19F]GE-226[SEQ ID NO 1] was pumped in duplicate over cells in randomized order for 60 sec at 50 μL/min flow rate followed by 120 sec of HBS-EP to monitor dissociation. This was followed by regeneration of the chip with 50 mM sodium hydroxide for 30 sec at 30 μL/min flow rate followed by 60 sec run of HBS-EP to stabilize the surface. Kinetic calculations were performed using Langmuir 1:1 binding model and simultaneous calculation of association and dissociation phase.

[3] = listed as 19F-Affibody analogue

- interaction with rat HER2 (words) [2]: did not interact
- interaction with rat HER2 (words) [2, 3]: did not interact
- interaction with rat HER2 (words) ([2]; listed as GE-226): not
Substance: [^19F]GE-226: cold unlabeled non-radioactive 19F analogue of the tracer, used for SPR and blocking
- interaction with human p95HER2 (words) [1]: did not interact
- interaction with human p95HER2 (words) [1, 3]: did not interact
